Experimental findings from publication doi:10.1101/2024.03.07.583918 are described below.

This assay addresses CheR of Pectobacterium atrosepticum SCRI1043 (Pectobacterium atrosepticum SCRI1043). As to the kind of experiment: ITC.
Molecule DWTSF [DWTSF pentapeptide] had a Kd of 360 nM.

GWEKF [GWEKF pentapeptide] showed a Kd of 200 nM.

In turn, NWETF [NWETF pentapeptide] returned a Kd of 480 nM. This Kd is about 2.4-fold higher than that of the molecule before.

Take GWQRF [GWQRF pentapeptide]: the dissociation constant Kd worked out at 540 nM.

Consider GWTTF [GWTTF pentapeptide], for which the Kd was determined as 90 nM.

In turn, NWTTF [NWTTF pentapeptide] showed a Kd of 1000 nM. This Kd lies about 11-fold higher than the previous one.

Molecule DWTTF [GWTTF pentapeptide with substitution of G by D at position 1] displayed a fold decrease in affinity against GWTTF of 2.6 fold.
